Measured values: article PMC9813358, “Insights into the GSDMB-mediated cellular lysis and its targeting by IpaH7.8” (Nature Communications, 2023)

B1: IpaH7.8 protein (residues 23–565) [Shigella flexneri] / GSDMB (residues 1-411) [human] (parent complex)
chain 1: SNEHYLRILTEWEKNSSPGEERGIAFNRLSQCFQNQEAVLNLSDLNLTSLPELPKHISALIVENNKLTSLPKLPAFLKELNADNNRLSVIPELPESLTTLSVRSNQLENLPVLPNHLTSLFVENNRLYNLPALPEKLKFLHVYYNRLTTLPDLPDKLEILCAQRNNLVTFPQFSDRNNIRQKEYYFHFNQITTLPESFSQLDSSYRINISGNPLSTRVLQSLQRLTSSPDYHGPQIYFSMSDGQQNTLHRPLADAVTAWFPENKQSDVSQIWHAFEHEEHANTFSAFLDRLSDTVSARNTSGFREQVAAWLEKLSASAELRQQSFAVAADATESCEDRVALTWNNLRKTLLVHQASEGLFDNDTGALLSLGREMFRLEILEDIARDKVRTLHFVDEIEVYLAFQTMLAEKLQLSTAVKEMRFYGVSGVTANDLRTAEAMVRSREENEFTDWFSLWGPWHAVLKRTEADRWAQAEEQKYEMLENEYSQRVADRLKASGLSGDADAEREAGAQVMRETEQQIYRQLTDEVLALRLSENGSRLHHS
chain 2: MFSVFEEITRIVVKEMDAGGDMIAVRSLVDADRFRCFHLVGEKRTFFGCRHYTTGLTLMDILDTDGDKWLDELDSGLQGQKAEFQILDNVDSTGELIVRLPKEITISGSFQGFHHQKIKISENRISQQYLATLENRKLKRELPFSFRSINTRENLYLVTETLETVKEETLKSDRQYKFWSQISQGHLSYKHKGQREVTIPPNRVLSYRVKQLVFPNKETMSAGLDIHFRGKTKSFPEGKSLGSEDSRNMKEKLEDMESVLKDLTEEKRKDVLNSLAKCLGKEDIRQDLEQRVSEVLISGELHMEDPDKPLLSSLFNAAGVLVEARAKAILDFLDALLELSEEQQFVAEALEKGTLPLLKDQVKSVMEQNWDELASSPPDMDYDPEARILCALYVVVSILLELAEGPTSVSS

Variants of: B1
Assay: ITC; parent: 94 nM

Row | Variant | Kd
1 | chain 1 N124A | 360 nM
